Reference: PMC11031135, “Chemo-enzymatic synthesis of tetrasaccharide linker peptides to study the divergent step in glycosaminoglycan biosynthesis” (Glycobiology, 2024)

B1: human β4GalT7, residues 81-327 (enzyme, UniProt Q9UBV7 81-327, looked up)
chain: PEHWEEDASWGPHRLAVLVPFRERFEELLVFVPHMRRFLSRKKIRHHIYVLNQVDHFRFNRAALINVGFLESSNSTDYIAMHDVDLLPLNEELDYGFPEAGPFHVASPELHPLYHYKTYVGGILLLSKQHYRLCNGMSNRFWGWGREDDEFYRRIKGAGLQLFRPSGITTGYKTFRHLHDPAWRKRDQKRIAAQKQEQFKVDREGGLNTVKYHVASRTALSVGGAPCTVLNIMLDCDKTATPWCTFS
notes: human beta-1,4-galactosyltransferase 7, UniProt Q9UBV7, residues 81-327, without the N-terminal transmembrane anchoring helix; Made from the pETM30 vector; The 6xHis-GST tag was removed by TEV protease; The printed monomer mass is 29 kDa; also called β4GalT7_81-327; source: E. coli Rosetta(DE3)pLysS, purified (IMAC, TEV cleavage, second IMAC, Superdex 200); not shown: 6xHistidine, N-terminal, …
B2: SUMO-β3GalT6 fusion protein (human β3GalT6 residues 53-329) (enzyme, UniProt Q96L58 53-329, looked up)
chain: ARAAAFLAVLVASAPRAAERRSVIRSTWLARRGAPGDVWARFAVGTAGLGAEERRALEREQARHGDLLLLPALRDAYENLTAKVLAMLAWLDEHVAFEFVLKADDDSFARLDALLAELRAREPARRRRLYWGFFSGRGRVKPGGRWREAAWQLCDYYLPYALGGGYVLSADLVHYLRLSRDYLRAWHSEDVSLGAWLAPVDVQREHDPRFDTEYRSRGCSNQYLVTHKQSLEDMLEKHATLAREGRLCKREVQLRLSYVYDWSAPPSQCCQRREGIP
notes: human beta-1,3-galactosyltransferase 6, UniProt Q96L58, residues 53-329, without the N-terminal transmembrane anchoring helix; The fusion was not cleaved; The printed monomer mass is 45 kDa; also called β3GalT6_53-329; source: FreeStyle 293-F cells, transfected, culture supernatant, purified (one-step IMAC, dialysis); not shown: SUMO, N-terminal, kept; 6xHistidine, N-terminal, kept
B3: human GlcAT-1, residues 76-335 (enzyme, UniProt O94766 76-335, looked up)
chain: TIYVVTPTYARLVQKAELVRLSQTLSLVPRLHWLLVEDAEGPTPLVSGLLAASGLLFTHLVVLTPKAQRLREGEPGWVHPRGVEQRNKALDWLRGRGGAVGGEKDPPPPGTQGVVYFADDDNTYSRELFEEMRWTRGVSVWPVGLVGGLRFEGPQVQDGRVVGFHTAWEPSRPFPVDMAGFAVALPLLLDKPNAQFDSTAPRGHLESSLLSHLVDPKDLEPRAANCTRVLVWHTRTEKPKMKQEEQLQRQGRGSDPAIEV
notes: human glucuronyltransferase GlcAT-1, UniProt O94766, residues 76-335, without the N-terminal transmembrane anchoring helix; Made from the pETM30 vector; The 6xHis-GST tag was removed by TEV protease; The printed monomer mass is 29 kDa; also called GlcAT-1_76-335; source: E. coli BL21(DE3)pLysS, purified (IMAC, TEV cleavage, flow-through of the second IMAC); not shown: 6xHistidine, N-terminal, …

Target: the molecule itself
Assay: mass photometry; Refeyn OneMP; final protein concentration between 50 nM and 125 nM; XylT1 and SUMO-β3GalT6 in Tris buffer A (50 mM Tris pH 7.4, 250 mM NaCl) with 5% glycerol, β4GalT7 in S200 buffer (25 mM MES pH 6.5, 200 mM NaCl, 5% glycerol), GlcAT-1 in HEPES buffer; duplicates

Stoichiometry N, 2:
B1
B2
B3
